Experimental data as given in patent US11370847B2, “Single domain antibodies directed against intracellular antigens” (Singh Biotechnology, LLC, priority 2014, dated 2022).
Several values for one entry are separate records, joined by “and”; a condition that tells them apart may be missing. Equal values may be shown once.

How the values were obtained:
[1] = system: STAT3; assay: STAT3 reporter GloResponse SIE-luc2P/HEK293 assay, IL-6 induction; format: cell-based;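 also: SIE-luc2P/HEK293 reporter cells stimulated with IL-6 at 40 ng/mL (EC80) after pretreatment, luciferase luminescence (RLU) read the following day, triplicate wells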
[2] = target: T1, active human TNF-α full length protein (Homo sapiens, UniProt P01375); assay: TNF-α binding ELISA
T1 construct: active human TNF-α full length protein; purchased Abcam
Protocol: In this Example, the binding of anti-TNF-α sdAbs to active human TNF-α full length protein was assessed using an enzyme linked immunosorbent assay (ELISA) format. Additionally, the feasibility of utilizing a secondary antibody targeted to the his tag portion of the sdAbs was assessed.
The test articles for this study were anti-TNF-α VHH62 (SEQ ID NO:47) sdAb, TNF-α VHH66 (SEQ ID NO:45) sdAb, and anti-TNF-α VHH69 (SEQ ID NO:46) sdAb (Experiment 1).
For the assays to assess the binding of the sdAbs to TNF-α protein (Experiment 1, 4 and 5), a standard sandwich ELISA format was utilized. […] Plates were incubated overnight at 2-8° C. After the incubation, plates were washed (3×) and blocked (3% Bovine Serum Albumin (BSA) in Phosphate Buffered Saline (PBS)) for at least one hour at room temperature.
After removal of the blocking buffer and washing (3×), samples were added to the appropriate wells of the ELISA plates and incubated at room temperature with shaking (150 rpm) for at least one hour. The secondary antibody (rabbit anti-llama biotinylated antibody at either a1:5,000 or 10,000 dilution) was then added to each well and incubated with shaking for at least one hour at room temperature.
After the incubation with secondary antibody, the plates were again washed (3×) and horseradish peroxidase (HRP) at either a 1:25,000 or 1:50,000 dilution was added to each well. Plates were incubated with shaking for at least one hour at room temperature. A final wash (3×) was performed followed by the addition of TMB (Tetramethylbenzidine) substrate. After a 20 to 25 minute incubation at room temperature, stop solution was added to halt the colorimetric reaction. The absorbance at 450 nm was measured on a VersaMax instrument utilizing SoftMax Pro GxP version 5.4 software from Molecular Devices (Sunnyvale, Calif.).
The final experiment performed was to confirm that the results from the ELISA testing were due to binding to the TNF-α protein and not non-specific binding of the sdAb. For this determination, a comparison was made between wells coated with 0.5 μg/mL of coating antigen and non-coated wells. […] This experiment confirms that the detection seen with the previous experiments was due to the specific binding of the VHH to the coating antigen and not due to non-specific binding.

[3] = system: rabbit anti-llama biotinylated antibody or his-probe (H-3) biotin labeled antibody; assay: ELISA of secondary antibody binding to coated sdAbs; conditions: Experiment 3, sdAb coated at 1 μg/mL, stored 1:100 dilution
Protocol: Two assays (Experiment 2 and 3) were performed to assess the binding of the secondary antibody to the sdAbs. A similar ELISA method was utilized except the sdAbs were directly coated onto the assay plate at a concentration of 1 μg/mL. Plates were incubated overnight at 2-8° C. After the incubation, plates were washed (3×) and blocked (3% BSA in PBS) for at least one hour at room temperature.
After removal of the blocking buffer and washing (3×), the secondary antibodies, either rabbit anti-llama biotinylated antibody or his-probe (H-3) biotin labeled antibody at was then added at a 1:5,000 dilution to each well and incubated with shaking for at least one hour at room temperature. Only the rabbit anti-llama biotinylated antibody was used in Experiment 2. Both antibodies were run in parallel in Experiment 3.
After the incubation with secondary antibody, the plates were again washed (3×) and HRP at a 1:50,000 dilution was added to each well. Plates were incubated with shaking for at least one hour at room temperature. One last wash (3×) was performed followed by the addition of TMB substrate and plates were incubated at room temperature. For the anti-llama biotinylated antibody stop solution was added to halt the colorimetric reaction at 10 minutes. The his-probe (H-3) biotin labeled antibody was allowed to incubate for 20 minutes prior to stopping. The absorbance at 450 nm was measured as before.

[4] = system: SIE-luc2P/HEK293 cells; assay: BCA protein concentration of reporter cells; format: cell-based
[5] = target: T2, TNF-α (Homo sapiens, UniProt P01375); assay: Inhibition of TNF-α cytotoxicity against U937 by anti-TNF-α VHHs; format: cell-based; conditions: constant dose of TNF-α at EC50
T2 construct: purchased Sigma-Aldrich
Protocol: The concentration of TNF-α required to show measurable modulation of activity in the U937 human […] cell line was evaluated by quantitation of the ATP present, which signals the presence of metabolically active cells using Promega's Cell Titer-Glo® Luminescent Cell Viability assay.
The U937 cells were seeded in a clear polystyrene 96-well microculture plate (Corning® Costar® 96-well flat bottom plate, Cat. #3997) in a total volume of 90 μL/well. After 24 hours of incubation in a humidified incubator at 37° C. with 5% CO2 and 95% air, 5 μL of 20×, serially diluted TNF-α in growth medium was added to each well in duplicate (10 pt dose response, highest concentration 20 ng/mL). Additionally, 5 μL of 20×, diluted staurosporine in growth medium was added to each well in duplicate (concentration 1 nM).
After 24 hours of culture in the presence of test agents, the concentration of compound required to show measurable modulation of TNF-α activity in the U937 cell line as evaluated by quantitation of the ATP present. Percent cell growth was calculated relative to untreated control wells. All tests were performed in duplicate at each concentration level.
The EC50 value for the test agents was estimated using Prism 6.05 by curve-fitting the data using the following four parameter-logistic equation: […]

[6] = 24 Hour Treatment Prior to IL6 Induction, higher conc.: VHH13 55.8 μg/mL, VHH14 84.3 μg/mL, BB1608 4.16 μM, VHH69 50.5 μg/mL
[7] = 24 Hour Treatment Prior to IL6 Induction, lower conc.: VHH13, VHH14, VHH69 10 μg/mL, BB1608 2 μM
[8] = 48 Hour Treatment Prior to IL6 Induction, higher conc.: VHH13 55.8 μg/mL, VHH14 84.3 μg/mL, BB1608 4.16 μM, VHH69 50.5 μg/mL
[9] = 48 Hour Treatment Prior to IL6 Induction, lower conc.: VHH13, VHH14, VHH69 10 μg/mL, BB1608 2 μM

T1 sequence (P01375 77-233 limits assumed): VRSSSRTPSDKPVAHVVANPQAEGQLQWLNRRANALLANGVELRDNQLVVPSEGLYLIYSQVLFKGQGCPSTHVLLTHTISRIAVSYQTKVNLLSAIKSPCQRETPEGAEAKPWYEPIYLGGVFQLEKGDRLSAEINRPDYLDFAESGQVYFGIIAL
T2 sequence (P01375 77-233 limits assumed): as above

B1: anti-TNF-α VHH69: anti-TNF-α sdAb, SEQ ID NO:46 (protein)
VHH: EVQLVESGGGSVLAGGSLRLSCVASGFTSRYNYMAWFRQAPGKEREGVATIGTASGSADYYGSVKDRFTISQDNAKNTVYLQMNSLKPEDTAMYYCAARTYGTISLTPSDYRYWGQGTLVTVSS
modifications: Camelid
Average RLU [1, 6]: 198596 RLU
Average RLU with Media Blank [1, 6]: 198571 RLU
Fold-Induction RLU/RLU of −IL6 [1, 6]: 434
Luminescence (replicate wells) [1, 6]: 203139 RLU and 194320 RLU and 198330 RLU
Average RLU [1, 7]: 169752 RLU
Average RLU with Media Blank [1, 7]: 169726 RLU
Fold-Induction RLU/RLU of −IL6 [1, 7]: 371
Luminescence (replicate wells) [1, 7]: 159115 RLU and 184364 RLU and 165776 RLU
effect on IL-6 induction of the STAT3 reporter ([1]; 24 and 48 hours treatment, VHH13 and VHH69 at highest concentration, VHH14 at both concentrations): enhancement of the IL-6 induction
Average RLU [1, 8]: 225726 RLU
Average RLU with Media Blank [1, 8]: 225694 RLU
Fold-Induction RLU/RLU of −IL6 [1, 8]: 452
Luminescence (replicate wells) [1, 8]: 219104 RLU and 237816 RLU and 220259 RLU
Average RLU [1, 9]: 172988 RLU
Average RLU with Media Blank [1, 9]: 172955 RLU
Fold-Induction RLU/RLU of −IL6 [1, 9]: 347
Luminescence (replicate wells) [1, 9]: 155927 RLU and 191241 RLU and 171796 RLU
detection in coated versus non-coated wells ([2]; 0.5 μg/mL coating antigen, sdAb at 1 μg/mL): detected in coated wells but not in non-coated wells
detection in TNF-α ELISA ([2]; Experiment 1, 1 μg/mL sdAb): little to no detection
OD450 Values ([2]; Non-Coated wells (non-specific binding), sdAb 1 μg/mL): 0.007
OD450 Values ([3]; His-probe (H-3)): 0.153
OD450 Values ([3]; Rabbit anti-Llama Secondary Antibody): 0.443
Protein concentration [4, 6]: 213
Protein concentration [4, 7]: 237
Protein concentration [4, 9]: 222
inhibition of TNF-α killing of U937 [5]: inhibit killing of U937 by TNF-α
